We go through three molecules from US12692324B2, “Anti-chitinase-3-like protein-1 (YKL-40) neutralizing antibody and uses thereof” (Institute of Nuclear Energy Research, Atomic Energy …, priority 2022, dated 2026).

Series [1] relates to CA5171 ovarian cancer cells, which overexpress chitinase-3-like protein-1. Briefly: Nano SPECT/CT bioimaging in tumor-carried mice. It is filed as in vivo. The settings on record: tail vein injection. From the text:
In order to verify these research results in a tumor-carried animal model, the CA5171 ovarian cancer cells, which overexpress chitinase-3-like protein-1, are inoculated in the left hind limb of the experiment animals. After the tumor volume grow to 200-300 mm3, use indium-111-DTPA-YKL-40 antibody complex as a radio-diagnostic drug for tumor mapping. The method of administration of diagnostic drugs is to inject the indium-111-DTPA-YKL-40 antibody complex by tail vein injection. Three tumor-carried mice are used as the animal model in both control and treatment groups, and the cross-sections of transverse, sagittal, and coronal are then taken at different time points such as 1, 4, 24 and 48 hours after administration. The tumor-carried mice of the control group are injected with indium-111-DTPA only, without YKL-40 antibody complex. […] The accumulation of the radioactive drug can at least last for 24 hours as shown in the results.

In series [2] the test system is human ovarian cancer cell CA5171. The settings on record: for proportion of Annexin V/7-AAD-positive apoptosis: CA5171, 50 μg/mL YKL-40 neutralizing antibody and/or 2.5 nM paclitaxel, 37° C., 48 hours. As for the experimental part:
It is important to know whether the YKL-40 neutralizing antibody of the present disclosure can induce cell apoptosis after combining with human ovarian cell CA5171. In this experiment, two specific dyes “7-amino-actinomycin D” (7-AAD) and “Annexin V” are used in the flow cytometry analysis to detect if the YKL-40 neutralizing antibody induces the cell apoptosis. In addition, the combination treatment of the chemotherapy drug paclitaxel and the YKL-40 neutralizing antibody is also analyzed in this experiment.
The experiment procedure applied herein is, firstly, to treat human ovarian cancer cell CA5171 with a final concentration of 50 μg/mL YKL-40 neutralizing antibody and/or 2.5 nM paclitaxel, then culture them at 37° C. for 48 hours. The control group is treated with normal saline. After the culturing, the cells are collected and stained with 7-AAD and FITC-conjugated annexin V (FITC, Fluorescein isothiocyanate) dyes for 30 minutes. After staining, the cells are washed by using cytometer analysis solution (normal saline with a final concentration of 0.2% fetal bovine serum and 0.5% sodium azide), and then analyzed by flow cytometry.

Series [3] shares this test system. As to the kind of experiment: Binding ability of antibody to human ovarian cancer cell CA5171 by flow cytometry. The class given is cell-based. The method, then: When the YKL-40 neutralizing antibody of the present disclosure is isolated and purified, its binding ability to human ovarian cell CA5171 is then evaluated by flow cytometry. In this example, the antibody of the control group and YKL-40 neutralizing antibody are respectively added to the culture of the ovarian cell CA5171. After a period of culturing, the human ovarian cell CA5171 are then analyzed by flow cytometry. Please refer to FIGS. 1A and 1B. […] From the results, the binding ability of the control group antibody IgG is 28.69%, while the binding ability of the YKL-40 neutralizing antibody is as high as 71.57%.

Entries after “also recorded” stand apart in the source; their conditions may differ.

Consider `O=C([O-])CN(CCN(CC(=O)[O-])CC(=O)[O-])CCN(CC(=O)[O-])CC(=O)[O-].[111In+3].[H+].[H+]` [indium-111-DTPA], for which, in series [1], the “time the radioactive drug sustains in the abdominal organs” value is 1 h.

For `CC(=O)O[C@H]1C(=O)[C@@]2(C)[C@H]([C@H](OC(=O)c3ccccc3)[C@]3(O)C[C@H](OC(=O)[C@H](O)[C@@H](NC(=O)c4ccccc4)c4ccccc4)C(C)=C1C3(C)C)[C@]1(OC(C)=O)CO[C@@H]1C[C@@H]2O` [paclitaxel, reference compound], the “proportion of Annexin V/7-AAD-positive apoptosis” value in series [2] is reported as 43.90%±0.35%.

B1: YKL-40 neutralizing antibody: isolated neutralizing antibody specifically binding chitinase-3-like protein-1 (YKL-40); VH SEQ ID NO: 7, VL SEQ ID NO: 8 (antibody, V domains shown)
VH: QIQLVQSGPELKKPGETVRISCKASGYTFPNYGMNWVKQAPGKGLKWMGWINTYTGEPTYTVDFKGQFAFSLETSASTAYLQINNLKNEDTATYFCARSFYGTNGFDYWGQGTTLTVSS
VL: NIVMTQSPKSMSMSVGERVTLSCKASENVGTYVSWYQQKPEQSPKLVIYGASNRYIGVPDRFTGSGSATDFTLTISSVEAEDLADYHCGQSYSYPPTFGGGTKLEIK
modifications: recombinant YKL-40 neutralizing antibody
On to B1, for which, in series [2], the “cytotoxicity (in words)” value was “not observed to be cytotoxic” and the “proportion of Annexin V/7-AAD-positive apoptosis” value came out at 3.91±0.11%. For the same molecule, the binding ability in series [3] (human ovarian cell CA5171) was found to be 71.57%. For the same molecule, in series [3] (versus control IgG antibody), the “binding to CA5171 cells (in words)” value was “stronger binding ability to CA5171 ovarian cells than the control group; also recorded: can significantly bind to human ovarian cancer cell CA5171”.
